Measurements from patent publication US20260139023A1.

Molecular target: full-length integrin αVβ5 ectopically expressed on HEK293T cells (UniProt P06756)
Experiment: cell-based or functional assay

Chain of full-length integrin αVβ5 ectopically expressed on HEK293T cells (P06756 31-1048 limits assumed, chain 1 of 2): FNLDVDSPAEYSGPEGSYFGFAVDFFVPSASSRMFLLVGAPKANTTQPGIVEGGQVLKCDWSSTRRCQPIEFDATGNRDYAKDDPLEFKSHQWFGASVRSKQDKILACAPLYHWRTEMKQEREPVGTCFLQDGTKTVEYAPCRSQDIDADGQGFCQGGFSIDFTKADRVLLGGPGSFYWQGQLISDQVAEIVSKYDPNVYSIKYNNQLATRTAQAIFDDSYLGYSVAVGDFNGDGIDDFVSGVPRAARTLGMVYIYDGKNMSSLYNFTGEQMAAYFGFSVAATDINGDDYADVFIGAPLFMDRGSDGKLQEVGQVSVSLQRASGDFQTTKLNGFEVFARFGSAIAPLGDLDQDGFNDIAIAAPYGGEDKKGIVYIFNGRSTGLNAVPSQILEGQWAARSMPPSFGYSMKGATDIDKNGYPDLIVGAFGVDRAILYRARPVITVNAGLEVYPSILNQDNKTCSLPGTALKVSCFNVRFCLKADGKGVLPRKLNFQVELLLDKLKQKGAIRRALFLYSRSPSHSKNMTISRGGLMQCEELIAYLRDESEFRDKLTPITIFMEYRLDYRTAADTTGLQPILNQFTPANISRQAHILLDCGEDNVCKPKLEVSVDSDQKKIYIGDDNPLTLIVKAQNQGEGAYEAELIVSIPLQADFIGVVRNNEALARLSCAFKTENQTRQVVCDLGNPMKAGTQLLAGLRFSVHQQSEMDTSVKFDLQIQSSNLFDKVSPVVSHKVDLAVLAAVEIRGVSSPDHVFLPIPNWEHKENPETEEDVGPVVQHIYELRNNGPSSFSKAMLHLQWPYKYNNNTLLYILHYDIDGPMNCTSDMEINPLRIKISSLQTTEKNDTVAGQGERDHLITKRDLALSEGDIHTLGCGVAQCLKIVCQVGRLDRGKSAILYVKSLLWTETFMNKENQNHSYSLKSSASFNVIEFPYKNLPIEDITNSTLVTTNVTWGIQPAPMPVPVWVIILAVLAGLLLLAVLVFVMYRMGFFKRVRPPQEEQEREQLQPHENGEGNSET
Chain of full-length integrin αVβ5 ectopically expressed on HEK293T cells (P18084 24-799 limits assumed, chain 2 of 2, further chain): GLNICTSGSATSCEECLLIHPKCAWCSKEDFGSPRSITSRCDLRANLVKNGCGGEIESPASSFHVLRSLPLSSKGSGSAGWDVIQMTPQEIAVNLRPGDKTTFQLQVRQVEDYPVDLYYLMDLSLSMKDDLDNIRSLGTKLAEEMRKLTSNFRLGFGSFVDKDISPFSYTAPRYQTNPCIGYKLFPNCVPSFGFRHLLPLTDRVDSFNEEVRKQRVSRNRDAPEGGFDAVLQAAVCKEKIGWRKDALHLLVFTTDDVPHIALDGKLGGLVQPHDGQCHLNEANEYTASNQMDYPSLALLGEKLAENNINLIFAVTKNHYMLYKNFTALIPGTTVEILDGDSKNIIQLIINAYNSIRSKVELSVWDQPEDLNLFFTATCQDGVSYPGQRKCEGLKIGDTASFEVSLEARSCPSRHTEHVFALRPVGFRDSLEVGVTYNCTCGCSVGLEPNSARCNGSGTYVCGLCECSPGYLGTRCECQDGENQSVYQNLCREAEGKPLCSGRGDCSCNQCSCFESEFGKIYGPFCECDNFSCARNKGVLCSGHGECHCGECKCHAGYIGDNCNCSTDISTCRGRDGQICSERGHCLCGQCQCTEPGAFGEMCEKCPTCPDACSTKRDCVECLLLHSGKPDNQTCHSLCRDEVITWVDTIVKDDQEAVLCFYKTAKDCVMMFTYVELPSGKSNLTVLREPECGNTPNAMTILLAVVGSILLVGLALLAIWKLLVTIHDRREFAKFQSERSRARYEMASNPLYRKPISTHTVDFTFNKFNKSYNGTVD

irisin N45Q mutant (irisin glycosylation mutant, recombinant, from mammalian Expi293 cells) (from UniProt Q8K3V5 60-171) (ligand)
concentration at maximal integrin signaling (pFAK western blot, HEK293T cells pretreated with Hsp90α): 0.1 nM
fold more potent integrin signaling than WT irisin: 5 to 10 fold
